# Source: patent US7838501
# Legend:
# [1] = target: chimeric transactivator λR-GyrB-NFκB (wild type λ repressor N-terminal domain) (bacteriophage λ; Escherichia coli); experiment: cell-based or functional assay
# [2] = target: chimeric transactivator λR-GyrB-NFκB with λ repressor mutation S93G (mutant clone 25) (bacteriophage λ; Escherichia coli); experiment: cell-based or functional assay
substance,measurement,setting,value
chimeric transactivator λR-GyrB-NFκB (wild type λ repressor N-terminal domain),"inducibility of luciferase activity, 5 nM coumermycin 40 hr, transient transfection of 293A cells",[1],50 fold
chimeric transactivator λR-GyrB-NFκB with λ repressor mutation S93G (mutant clone 25),"Activation factor, clone 5",[2],5100 fold
same,"Activation factor, clone 8",[2],1500 fold
same,"Activation factor, clone 10",[2],3200 fold
same,"Activation factor, clone 18",[2],5800 fold
same,"Activation factor, clone 23",[2],14000 fold
same,"Activation factor, clone 28",[2],5100 fold
same,"Activation factor, clone 34",[2],5800 fold
same,"Activation factor, clone 44",[2],13000 fold
same,"Activation factor, clone 45",[2],1600 fold
same,"Activation factor, clone 47",[2],2100 fold
same,"Luciferase Activity, With Coum (5 nM), clone 5 (Arbitrary Light Units/µg protein)",[2],47500
same,"Luciferase Activity, With Coum (5 nM), clone 8 (Arbitrary Light Units/µg protein)",[2],52400
same,"Luciferase Activity, With Coum (5 nM), clone 10 (Arbitrary Light Units/µg protein)",[2],1590
same,"Luciferase Activity, With Coum (5 nM), clone 18 (Arbitrary Light Units/µg protein)",[2],7450
same,"Luciferase Activity, With Coum (5 nM), clone 23 (Arbitrary Light Units/µg protein)",[2],8240
same,"Luciferase Activity, With Coum (5 nM), clone 28 (Arbitrary Light Units/µg protein)",[2],12300
same,"Luciferase Activity, With Coum (5 nM), clone 34 (Arbitrary Light Units/µg protein)",[2],47000
same,"Luciferase Activity, With Coum (5 nM), clone 44 (Arbitrary Light Units/µg protein)",[2],30200
same,"Luciferase Activity, With Coum (5 nM), clone 45 (Arbitrary Light Units/µg protein)",[2],1910
same,"Luciferase Activity, With Coum (5 nM), clone 47 (Arbitrary Light Units/µg protein)",[2],8530
same,"Luciferase Activity, Without Coum, clone 5 (Arbitrary Light Units/µg protein)",[2],9.4
same,"Luciferase Activity, Without Coum, clone 8 (Arbitrary Light Units/µg protein)",[2],35.8
same,"Luciferase Activity, Without Coum, clone 10 (Arbitrary Light Units/µg protein)",[2],0.5
same,"Luciferase Activity, Without Coum, clone 18 (Arbitrary Light Units/µg protein)",[2],1.3
same,"Luciferase Activity, Without Coum, clone 23 (Arbitrary Light Units/µg protein)",[2],0.6
same,"Luciferase Activity, Without Coum, clone 28 (Arbitrary Light Units/µg protein)",[2],2.4
same,"Luciferase Activity, Without Coum, clone 34 (Arbitrary Light Units/µg protein)",[2],8.1
same,"Luciferase Activity, Without Coum, clone 44 (Arbitrary Light Units/µg protein)",[2],2.4
same,"Luciferase Activity, Without Coum, clone 45 (Arbitrary Light Units/µg protein)",[2],1.2
same,"Luciferase Activity, Without Coum, clone 47 (Arbitrary Light Units/µg protein)",[2],4.1
same,"coumermycin concentration of maximal induction of luciferase, stable clone S93G-5, 40 hr",[2],2.5 to 5 nM
same,"induction of luciferase activity, 5 nM coumermycin 40 hr, 293A cells with stable pLuc",[2],1460 fold
same,"lowest coumermycin concentration with apparent induction of luciferase expression, stable clone S93G-5, 40 hr",[2],0.5 nM
same,"suppression of coumermycin-induced (5 nM) luciferase expression by 5 µM novobiocin, 40 hr",[2],> 98%
